Source: patent US20120128689A1 (GlaxoSmithKline, published 2012)

Tests used:
[1] = target: T1, human IL-23 (human, UniProt Q9NPF7 20-189; P29460 23-328); assay: SPR Biacore, purified mAb captured on anti-human IgG, human IL-23 64-0.062 nM
T1 construct: Heterodimer of p19 and p40; also called hIL-23
T1 sequence 1: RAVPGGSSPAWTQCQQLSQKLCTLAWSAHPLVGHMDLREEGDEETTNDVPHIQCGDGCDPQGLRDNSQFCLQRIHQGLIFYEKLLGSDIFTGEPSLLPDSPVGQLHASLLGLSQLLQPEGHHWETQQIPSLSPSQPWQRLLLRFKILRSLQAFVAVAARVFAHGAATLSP
T1 sequence 2: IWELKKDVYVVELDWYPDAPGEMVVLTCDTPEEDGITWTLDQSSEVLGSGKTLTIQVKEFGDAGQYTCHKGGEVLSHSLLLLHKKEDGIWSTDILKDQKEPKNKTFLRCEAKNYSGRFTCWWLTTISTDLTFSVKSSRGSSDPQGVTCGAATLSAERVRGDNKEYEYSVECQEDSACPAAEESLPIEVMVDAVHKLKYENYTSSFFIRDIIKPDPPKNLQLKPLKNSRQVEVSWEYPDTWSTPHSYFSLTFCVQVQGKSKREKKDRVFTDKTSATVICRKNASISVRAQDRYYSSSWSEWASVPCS
Description: (§1) An anti-human IgG (Biacore BR-1008-39) was immobilised on a Biacore CM5 chip by primary amine coupling in accordance with the manufacturer's instructions. Anti IL-23 antibodies were captured on this surface and after a period of stabilisation, IL-23 (cyno or human) was passed over the antibody captured surface and a binding sensorgram was obtained. […] All runs were double referenced with a buffer injection over the captured antibody surface. Data was analysed using the 1:1 model using the software inherent to the Biacore T100. Analysis was carried out at 25° C. using HBS-EP buffer. Data presented in Tables 1 and 2 are on tissue culture supernatants of HEK cells transiently expressing the antibody of interest unless otherwise indicated.
(§2) This experiment was repeated with purified IL-23 antibodies and data shown in Table 3 was generated using 64, 16, 4, 1, 0.25 and 0.062 nM concentrations of human and cyno IL-23.

[2] = target: T2, cyno IL-23 (cyno, limits assumed); assay: SPR Biacore T100, purified mAb captured on anti-human IgG, one concentration of cyno IL-23 (256 nM)
T2 construct: Heterodimer of p19 and p40; also called cynomolgus IL-23
T2 chain 1: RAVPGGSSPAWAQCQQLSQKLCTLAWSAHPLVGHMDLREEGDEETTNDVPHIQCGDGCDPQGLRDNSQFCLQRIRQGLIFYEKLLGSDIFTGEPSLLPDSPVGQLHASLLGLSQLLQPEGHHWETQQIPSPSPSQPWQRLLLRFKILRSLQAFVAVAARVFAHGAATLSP
T2 chain 2: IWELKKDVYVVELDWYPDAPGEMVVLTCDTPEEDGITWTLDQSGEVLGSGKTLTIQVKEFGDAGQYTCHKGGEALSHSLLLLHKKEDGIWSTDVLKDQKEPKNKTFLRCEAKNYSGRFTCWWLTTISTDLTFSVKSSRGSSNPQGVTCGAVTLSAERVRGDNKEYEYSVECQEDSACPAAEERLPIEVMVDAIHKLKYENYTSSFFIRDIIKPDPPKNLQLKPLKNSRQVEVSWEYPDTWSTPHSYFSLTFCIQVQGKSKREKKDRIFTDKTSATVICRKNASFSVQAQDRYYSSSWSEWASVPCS

[3] = target: T2, cyno IL-23; assay: SPR Biacore T100, mAb from HEK supernatant captured on anti-human IgG, one concentration of cyno IL-23 (256 nM)
Description: as §1

[4] = target: T1, human IL-23; assay: SPR Biacore T100, purified mAb captured on anti-human IgG, human IL-23 64-0.062 nM
[5] = target: T1, human IL-23; assay: inhibition ELISA: antibody pre-incubated with a constant concentration of human IL-23, IL-23 bound to plate-coated human IL23R Fc chimera detected with biotinylated anti-human IL12, OD450
Description: Plates were coated with human IL23R Fc chimera at […] (phosphate buffered saline). 50 μl/well of this mixture was incubated overnight at 4° C. The plates were then washed three times with Phosphate Buffered Saline with 0.05% Tween 20 (PBST). Plates were blocked with 4% skim milk powder (Fluka BioChemika #70166) PBST 100 μl/well for a minimum of 1 hour at room temperature. The plates were then washed three times with Phosphate Buffered Saline+0.05% Tween 20 (PBST). Various concentrations of antibody were incubated in a separate plate with a constant concentration of IL-23 for 1 hour at room temperature. 50 ul of each mixture were transferred to the assay plate and incubated at RT for 1 hr. They were then washed three times with Phosphate Buffered Saline+0.05% Tween 20 (PBST). Bound IL23 was detected by anti human IL12 Biotin labelled Ab (R&D systems BAF219) diluted to 100 ng/ml in 4% skim milk powder (Fluka BioChemika #70166) PBST. 50 μl/well of the biotinylated antibody was added and incubated at RT for 1 hour. The plates were then washed three times with Phosphate Buffered Saline+0.05% Tween 20 (PBST). SA HRP (GE healthcare RPN4401) was diluted 1/4000 in 4% skim milk powder (Fluka BioChemika #70166) PBS, 50 μl/well was added to the plates. The plates were then washed three times with Phosphate Buffered Saline+0.05% Tween 20 (PBST). 50 ul/well of TMB was added to the plates and incubated at RT for 15 min. 25 μl/well of 3 MH₂SO₄ was added to the wells already containing TMB. The plate was read at OD450 nm using the SOftmaxPRO versamax plate reader.

[6] = target: T1, human IL-23; assay: SPR Biacore T100, mAb from HEK supernatant captured on anti-human IgG, human IL-23 64-0.062 nM
Description: as §1

[7] = target: T1, human IL-23; assay: cell-based or functional assay
[8] = target: T2, cyno IL-23; assay: SPR Biacore, purified mAb captured on anti-human IgG, cyno IL-23 64-0.062 nM
Description: as §1, §2

Kd [1]: 0.186 nM
koff [1]: 0.000216 s⁻¹
kon [1]: 1.16e+06 M⁻¹ s⁻¹
Kd [2]: 0.332 nM
koff [2]: 0.000583 s⁻¹
kon [2]: 1.76e+06 M⁻¹ s⁻¹
Kd [3]: 0.365 nM
koff [3]: 0.000484 s⁻¹
kon [3]: 1.33e+06 M⁻¹ s⁻¹
Kd [4]: 0.197 nM
koff [4]: 0.000235 s⁻¹
kon [4]: 1.19e+06 M⁻¹ s⁻¹
IC50 (read off the curve) [5]: ~0.7 nM
Kd [6]: 0.207 nM
koff [6]: 0.000239 s⁻¹
kon [6]: 1.16e+06 M⁻¹ s⁻¹
IC50 (inhibition of IL-23 driven STAT3 phosphorylation in human activated T cell blasts) [7]: 0.115 nM
Kd [8]: 0.302 nM
koff [8]: 0.000298 s⁻¹
kon [8]: 984000 M⁻¹ s⁻¹
B1: A3M0 (antibody, human IgG1, kappa, V domains shown)
VH: QVQLVQSGAEVKKPGSSVKVSCKASGYTFTSYGITWVRQAPGQGLEWMGENYPRSGNTYYNEKFKGRVTITADKSTSTAYMELSSLRSEDTAVYYCARSEFISTVVAPYYYALDYWGQGTLVTVSS
VL: DIVMTQSPDSLAVSLGERATINCKASKKVTIFGSISALHWYQQKPGQPPKLIYNGAKLESGVPDRFSGSGSGTDFTLTISSLQAEDVAVYYCLQNKEVPYTFGGGTKVEIKR
notes: human gamma1 and kappa constant regions; Tested as HEK supernatant and as purified antibody; also called A3M0 purified
